This is an account of results in patent US20230212587A1, “Mutant Hydroxyphenylpyruvate Dioxygenase Polypeptide, Encoding Gene Thereof and Use Therefor” (Beijing Dabeinong Biotechnology Co., Ltd., priority 2019, published 2023).

What all share (type): in vivo
Test [1] concerns Arabidopsis thaliana T1 plants. The test can be described thus: Topramezone tolerance of transgenic Arabidopsis thaliana T1 plants (pesticide damage grade by bleached leaf area, score, resistance evaluation). The note with it: for Classification and statistics of pesticide damage grade Grade 0 / Classification and statistics of pesticide damage grade Grade 1 / Classification and statistics of pesticide damage grade Grade 2 / Classification and statistics of pesticide damage grade Grade 3 / Classification and statistics of the grade of pesticide damage Grade 0 / Classification and statistics of the grade of pesticide damage Grade 1 / Classification and statistics of the grade of pesticide damage Grade 2 / Classification and statistics of the grade of pesticide damage Grade 3: number of plants (of 16) in this grade; for Classification and statistics of pesticide damage grade Grade 0 / Classification and statistics of pesticide damage grade Grade 1 / Classification and statistics of pesticide damage grade Grade 2 / Classification and statistics of pesticide damage grade Grade 3 / Scores / Resistance evaluation / Classification and statistics of the grade of pesticide damage Grade 0 / Classification and statistics of the grade of pesticide damage Grade 1 / Classification and statistics of the grade of pesticide damage Grade 2 / Classification and statistics of the grade of pesticide damage Grade 3: 7 DAT; for Scores: score for pesticide damage 0-100; for Grade 0 (number of plants) / Grade 1 (number of plants) / Grade 2 (number of plants) / Grade 3 (number of plants) / Resistance Grade / score: mutation combination, Table 8. Summed up:
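Herbicide tolerance was judged per plant on a bleaching scale (grade 0 no bleaching to grade 3 fully bleached) 7 DAT. Topramezone doses were 0, 25, 50 and 100 g ai/ha on 18-day-old T1 and wild-type plants.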

For test [2], the system named is soybean T1 plants. The test can be described thus: Tolerance of transgenic soybean T1 plants to isoxaflutole. The conditions noted are these: isoxaflutole 140 and 280 g ai/ha, 7 DAT, compared to control vector and wild-type. An excerpt: (§1) The Arabidopsisthaliana T1 plants into which the AsHPPDm-F372A-02 nucleotide sequence was introduced, Arabidopsis thaliana T1 plants into which the AsHPPD-02 nucleotide sequence was introduced and wild-type Arabidopsisthaliana plants (18 days after sowing) were sprayed with topramezone at four different concentrations, i.e., 25 g ai/ha (one-fold field concentration, 1×), 50 g ai/ha (two-fold field concentration, 2×), 100 g ai/ha (four-fold field concentration, 4×) and 0 g ai/ha (water, 0×) to determine the tolerance of Arabidopsisthaliana to the herbicide. The degree of damage caused by the herbicide was measured for each plant according to the proportion of bleached leaf area (the proportion of bleached leaf area=bleached leaf area/total leaf area×100%) 7 days after spraying (7 DAT): the case where there is basically no bleached phenotype is defined as grade 0, the case where the proportion of bleached leaf area is less than 50% is defined as grade 1,the case where the proportion of bleached leaf area is more than 50% is defined as grade 2, and the case where the proportion of bleached leaf area is 100% grade is defined as grade 3.
(§2) In order to further verify the tolerance effect of HPPD (F372A) on other HPPD inhibitors, the soybean T1 plants into which the AsHPPDm-F372A-02 nucleotide sequence was introduced, soybean T1 plants into which the ZmHPPDm-F372A-02 nucleotide sequence was introduced, soybean T1 plants into which the PfHPPDm-F372A-02 nucleotide sequence was introduced, soybean T1 plants into which the AsHPPDm-F372A-A110 nucleotide sequence was introduced, soybean T1 plants into which the control vector DBN11375NN was introduced in Example 8, and the wild-type soybean plants (V3-V4 at seedling stage) were sprayed as follows to detect the herbicide tolerance of each soybean plants, (1) 140 g ai/ha (2-fold field concentration, 2 ×) isoxaflutole; (2) 280 g ai/ha (4-fold field concentration, 4 ×) isoxaflutole; (3) 210 g ai/ha (2-fold field concentration, 2 ×) mesotrione; (4) 420 g ai/ha (4-fold field concentration, 4 ×) mesotrione. According to the method in point 6 of Example 1, after 7 days of spraying (7 DAT), the damage degree of each plant by the herbicide was statistically analyzed, and the scoring and resistance evaluation were carried out accordingly. […]

Test [3] concerns soybean T1 plants. Nature of the test: Tolerance of transgenic soybean T1 plants to mesotrione. The note with it: mesotrione 210 and 420 g ai/ha, 7 DAT, compared to control vector and wild-type.
Excerpt: as §1, §2

Setting [4] is: HPPDs from different species, topramezone 25 g ai/ha (1x).
Where [5] appears, read: HPPDs from different species, topramezone 100 g ai/ha (4x).

B1: ZmHPPDm-F372A-02: Zea mays HPPD mutant F372A, SEQ ID NO: 20 (protein)
chain: MPPTPTAAAAGAAVAAASAAEQAAFRLVGHRNFVRFNPRSDRFHTLAFHHVELWCADAASAAGRFSFGLGAPLAARSDLSTGNSAHASLLLRSGSLSFLFTAPYAHGADAATAALPSFSAAAARRFAADHGLAVRAVALRVADAEEAFRTSVAAGARPAFGPVDLGRGFRLAEVELYGDVVLRYVSYPDGAAGEPFLPGFEGVASPGAADYGLSRFDHIVGNVPELAPAAAYFAGFTGFHEFAEFTTEDVGTAESGLNSMVLANNSENVLLPLNEPVHGTKRRSQIQTFLDHHGGPGVQHMALASDDVLRTLREMQARSAMGGFEFMAPPTSDYYDGVRRRAGDVLTEAQIKECQELGVLVDRDDQGVLLQIAPKPVGDRPTLFLEIIQRIGCMERDEKGQEYQKGGCGGFGKGNFSQLFKSIEDYEKSLEAMQAAAAATAQGS
modifications: ZmHPPDm-F372A Amino Acid Sequence
As for B1, in test [1] (setting [4]), the “Classification and statistics of pesticide damage grade Grade 0” value is given as 16; the “Classification and statistics of pesticide damage grade Grade 1” value stood at 0; the “Classification and statistics of pesticide damage grade Grade 2” value is on record as 0; the “Classification and statistics of pesticide damage grade Grade 3” value is on record as 0. Further, in test [1] (setting [4]), the Scores is on record as 0 and the Resistance evaluation entry is on record as “highly resistant (highly resistant plants (scores 0-15))”. In test [1] (setting [5]), the “Classification and statistics of pesticide damage grade Grade 0” value is 4; the “Classification and statistics of pesticide damage grade Grade 1” value came to 12; the “Classification and statistics of pesticide damage grade Grade 2” value is on record as 0; the “Classification and statistics of pesticide damage grade Grade 3” value was 0. Besides, in test [1] (setting [5]), the Scores was 25 and the Resistance evaluation result is “moderately resistant (moderately resistant plants (scores 16-33))”. In addition, in test [2], the “tolerance to isoxaflutole, in words” value is reported as “different degrees of tolerance”. The “tolerance to mesotrione, in words” value in test [3] is recorded as “different degrees of tolerance”.

B2: AsHPPDm-F372A-02: Avena sativa HPPD mutant F372A, SEQ ID NO: 4; gene SEQ ID NO: 6 (protein)
chain: MPPTPATATGAAAAAVTPEHAARSFPRVVRVNPRSDRFPVLSFHHVELWCADAASAAGRFSFALGAPLAARSDLSTGNSAHASLLLRSGALAFLFTAPYAPPPQEAATAAATASIPSFSADAARTFAAAHGLAVRSVGVRVADAAEAFRVSVAGGARPAFAPADLGHGFGLAEVELYGDVVLRFVSYPDETDLPFLPGFERVSSPGAVDYGLTRFDHVVGNVPEMAPVIDYMKGFLGFHEFAEFTAEDVGTTESGLNSVVLANNSEAVLLPLNEPVHGTKRRSQIQTYLEYHGGPGVQHIALASNDVLRTLREMRARTPMGGFEFMAPPQAKYYEGVRRIAGDVLSEEQIKECQELGVLVDRDDQGVLLQIATKPVGDRPTFFLEMIQRIGCMEKDEVGQEYQKGGCGGFGKGNFSELFKSIEDYEKSLEVKQSVVAQKS
modifications: AsHPPDm-F372A Amido Acid Sequence
As for B2, in test [1] (Arabidopsis thaliana T1 plants sprayed with topramezone, all tested concentrations), the “resistance evaluation stated in the text” value is on record as “highly resistant (highly resistant plants (scores 0-15))”. In addition, in test [1] (topramezone 25 g ai/ha (1x)), the “Classification and statistics of the grade of pesticide damage Grade 0” value worked out at 16; the “Classification and statistics of the grade of pesticide damage Grade 1” value turned out to be 0; the “Classification and statistics of the grade of pesticide damage Grade 2” value was 0; the “Classification and statistics of the grade of pesticide damage Grade 3” value came to 0. In addition, in test [1] (topramezone 25 g ai/ha (1x)), the Scores was determined as 0 and the Resistance evaluation entry is given as “highly resistant (highly resistant plants (scores 0-15))”. Further, in test [1] (topramezone 50 g ai/ha (2x)), the “Classification and statistics of the grade of pesticide damage Grade 0” value was determined as 16; the “Classification and statistics of the grade of pesticide damage Grade 1” value is 0; the “Classification and statistics of the grade of pesticide damage Grade 2” value is 0; the “Classification and statistics of the grade of pesticide damage Grade 3” value came out at 0. Besides, in test [1] (topramezone 50 g ai/ha (2x)), the Scores is listed as 0 and the Resistance evaluation result was “highly resistant (highly resistant plants (scores 0-15))”. Also, in test [1] (topramezone 100 g ai/ha (4x)), the “Classification and statistics of the grade of pesticide damage Grade 0” value was found to be 16; the “Classification and statistics of the grade of pesticide damage Grade 1” value stood at 0; the “Classification and statistics of the grade of pesticide damage Grade 2” value turned out to be 0; the “Classification and statistics of the grade of pesticide damage Grade 3” value is recorded as 0. In test [1] (topramezone 100 g ai/ha (4x)), the Scores is 0 and the Resistance evaluation entry was “highly resistant (highly resistant plants (scores 0-15))”. Moreover, in test [1] (topramezone 25 g ai/ha), the “Grade 0 (number of plants)” value worked out at 20, the “Grade 1 (number of plants)” value stood at 0, the “Grade 2 (number of plants)” value was 0 and the “Grade 3 (number of plants)” value worked out at 0. Besides, in test [1] (topramezone 25 g ai/ha), the “Resistance Grade” value is reported as “Highly resistant” and the score is given as 0. For the same molecule, in test [1] (topramezone 100 g ai/ha), the “Grade 0 (number of plants)” value is given as 20, the “Grade 1 (number of plants)” value amounted to 0, the “Grade 2 (number of plants)” value turned out to be 0 and the “Grade 3 (number of plants)” value is 0. For the same molecule, in test [1] (topramezone 100 g ai/ha), the “Resistance Grade” value was “Highly resistant” and the score is 0. Moreover, the “tolerance to isoxaflutole, in words” value in test [2] is reported as “different degrees of tolerance”. Besides, the “tolerance to mesotrione, in words” value in test [3] is on record as “different degrees of tolerance”.
